In paper PMC12421856 (mBio, 2025):

What was measured:
Details in all cases: both partners purified
[1] = molecular target: trimeric SARS-CoV-2 S ectodomain (insect cell-expressed) (SARS-CoV-2 Wuhan-Hu-1 (MN908947), UniProt P0DTC2, stabilised); assay: SPR
[2] = molecular target: trimeric SARS-CoV-2 S ectodomain (insect cell-expressed) (SARS-CoV-2 Wuhan-Hu-1 (MN908947), UniProt P0DTC2, stabilised); assay: SPR; remark: listed apart in the source
SARS-CoV-2 S HexaPro = SARS-CoV-2 S HexaPro (SARS-CoV-2 Wuhan-Hu-1, HexaPro, stabilised); assay: cryo-EM structure

B1: pT1679 Fab (Fab, V domains shown)
VH: QVQLVQSGAEVKKPGSSVKVSCRASGGTFSSYAISWVRQAPGQGLEWMGTIIPVFGAPDYAQKFQGRVTITADESTSTAYMEVRSLRSEDTAVYYCARDASPYYYDRSGYPRWAEDLHHWGQGTMVTVSS
VL: QSVLTQPPSVSGAPGQRVTISCTGSSSNIGAGYDVHWYQQLPGTAPKLLIYGNSNRPSGVPDRFSGSKSGTSGSLAISGLQPEDEADYYCQSYDSSLSGSIFGGGTKLTVL
notes: also called Fab fragment of pT1679; source: Drosophila S2 cells, purified (Strep-Tactin XT, SEC)
fold higher affinity than for the RBD [1]: ~3 fold

B2: pT1679 Fab (Fab, V domains shown)
VH: QVQLVQSGAEVKKPGSSVKVSCRASGGTFSSYAISWVRQAPGQGLEWMGTIIPVFGAPDYAQKFQGRVTITADESTSTAYMEVRSLRSEDTAVYYCARDASPYYYDRSGYPRWAEDLHHWGQGTMVTVSS
VL: QSVLTQPPSVSGAPGQRVTISCTGSSSNIGAGYDVHWYQQLPGTAPKLLIYGNSNRPSGVPDRFSGSKSGTSGSLAISGLQPEDEADYYCQSYDSSLSGSIFGGGTKLTVL
notes: source: Drosophila S2 cells, purified (Strep-Tactin XT, SEC)
Kd [2]: 0.13 nM | koff [2]: 0.00012 s⁻¹ | kon [2]: 900000 M⁻¹ s⁻¹ | stoichiometry N (SARS-CoV-2 S HexaPro): 3 pT1679 molecules per trimeric S protein
